The record followed here is the RNAGym collection of RNA variant scans (doi:10.1093/nar/gkz1192).

Sequences and labels used below:
B1: CPEB3 Ribozyme (parent)
chain: UAACAGGGGGCCACAGCAGAAGCGUUCACGUCGCAGCCCCUGUCAGAUUCUGGUGAAUCUGCGAAUUCUGCUGUAUAUCUC

The variants in this data set derive from B1. Nature of the data set: self-cleavage, relative activity (ratio to wild type); higher = more cleavage; in vitro, sequencing. Summed up: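 Relative activity compares each variant's cleaved/total read fraction with that of the unmutated ribozyme. To get these fractions, barcoded CPEB3 ribozyme libraries from rounds of error-prone PCR were transcribed with T7 RNA polymerase for 5 hours at 37°C and then given 15 min of DNase I treatment before EDTA was added. The RNAs were reverse transcribed with template switching and sequenced on Illumina, and DNA sequencing linked barcodes to variants. A minimum of 5 reads applied, and three batches were averaged.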
On to C12G U49C, for which the self-cleavage came out at 0.16.

In the case of C12A C62A, the self-cleavage is 0.71.

For the variant C12A C62G, the self-cleavage came out at 0.24.

As for C11U C62U, the self-cleavage was 0.11.

With C11U A35U, the self-cleavage is 0.33.

On to C11U A35G, for which the self-cleavage worked out at 1.27.

Turning to C12U C14U, the self-cleavage worked out at 1.25.

Regarding C12U A18G, the self-cleavage amounted to 0.95.

On to C12U A18U, for which the self-cleavage worked out at 0.62.

Regarding C11G U80C, the self-cleavage is 0.55.

For C11G U80A, the self-cleavage is 0.76.

As to C12G A20G, the self-cleavage came out at 0.44.

Consider C12A A13G, for which the self-cleavage is 0.89.

Turning to C12A A13U, the self-cleavage came out at 1.25.

On to C12A A13C, for which the self-cleavage is 1.23.

Take C12A A28C: the self-cleavage was determined as 0.57.

C12A A28G: the self-cleavage stood at 0.59.

As for C12A A28U, the self-cleavage was determined as 0.92.

For C11U A20U, the self-cleavage is 0.28.

For C11U A20G, the self-cleavage was determined as 0.43.

Regarding C12G U26C, the self-cleavage is 0.24.

For the variant C12U U66C, the self-cleavage was determined as 0.71.

Consider C12A U58C, for which the self-cleavage amounted to 0.54.

With C11U G61C, the self-cleavage worked out at 0.11.

C12G G52A: the self-cleavage amounted to 0.49.

Take C11U C14A: the self-cleavage is 0.93.

On to C11U C50U, for which the self-cleavage was 0.4.

Turning to A13C A20G, the self-cleavage stood at 0.72.

Regarding C12U G36C, the self-cleavage came to 0.17.

In the case of C12U U58C, the self-cleavage was determined as 1.03.

For C12U U58A, the self-cleavage is 0.9.

In the case of A13C A35U, the self-cleavage was found to be 0.42.

For the variant A13C A35G, the self-cleavage was 1.22.

C12U A77G: the self-cleavage is 1.19.

On to C12U A77C, for which the self-cleavage came out at 1.03.

C11U A57G: the self-cleavage came out at 0.33.

On to C12G C40A, for which the self-cleavage came out at 0.11.

As to C12A U54C, the self-cleavage stood at 1.12.

As for C12A U54A, the self-cleavage was 1.1.

On to C12U U67C, for which the self-cleavage came to 0.3.

Consider C12U U67G, for which the self-cleavage was 0.95.

With C12U U67A, the self-cleavage came out at 0.86.

In the case of C11G U74A, the self-cleavage was 0.96.

On to C11G U74G, for which the self-cleavage was 0.84.

Consider C11G U74C, for which the self-cleavage worked out at 0.91.

Take C11U A65U: the self-cleavage is 0.33.

Take C11U A65G: the self-cleavage is 0.2.

Turning to A13C A18U, the self-cleavage came out at 0.25.

A13C A18G: the self-cleavage was determined as 0.67.

In the case of C12A G55C, the self-cleavage was 0.78.

For the variant C12A G52A, the self-cleavage was determined as 1.23.

On to C12G U67A, for which the self-cleavage amounted to 0.23.

In the case of C12G U67C, the self-cleavage came out at 0.08.

As for C12G U67G, the self-cleavage is 0.12.

Regarding C12A A21G, the self-cleavage is 0.73.

In the case of C12U C27A, the self-cleavage was 0.46.

As for C11G U31C, the self-cleavage turned out to be 0.22.

For the variant C11G U31G, the self-cleavage turned out to be 0.27.

As for C12U A75G, the self-cleavage stood at 1.3.

With C12U A75U, the self-cleavage came out at 1.28.

With C12G C50G, the self-cleavage was determined as 0.28.

Turning to C12G U54C, the self-cleavage came out at 0.51.

For the variant C12G U25C, the self-cleavage came to 0.14.

As to C11U C32A, the self-cleavage was 0.2.

Turning to C12U C39U, the self-cleavage turned out to be 1.26.

For the variant C12A G30U, the self-cleavage was determined as 0.26.

Consider C12U G16U, for which the self-cleavage is 0.75.

For the variant C12U G16C, the self-cleavage turned out to be 0.79.

With C11U U48A, the self-cleavage amounted to 0.24.

Consider C11U U48C, for which the self-cleavage is 0.31.

Consider C12G U43C, for which the self-cleavage was 0.38.

For A13C A28G, the self-cleavage is 0.62.

In the case of A13C A28U, the self-cleavage was found to be 0.76.

As to C12G U76C, the self-cleavage came out at 0.66.

Take C12A A47G: the self-cleavage worked out at 1.17.

As to C12A U80C, the self-cleavage was 1.23.

Regarding C11U U51G, the self-cleavage turned out to be 0.35.

In the case of C11U U51A, the self-cleavage came to 0.42.

Turning to C11U U51C, the self-cleavage was 0.44.

As to C12A C29U, the self-cleavage was 0.7.

As to C11U G24A, the self-cleavage was determined as 0.22.

Regarding C12U U26A, the self-cleavage came to 1.19.

As to C12U U26C, the self-cleavage is 0.84.

Turning to C12A C17G, the self-cleavage came to 0.16.

C12U G24C: the self-cleavage was 0.16.

For C12A C40U, the self-cleavage was determined as 0.69.

As for C12A C40A, the self-cleavage worked out at 0.3.

Take C12G U69A: the self-cleavage was 0.3.

For C12G U69C, the self-cleavage came to 0.11.

C11U U66C: the self-cleavage came to 0.2.

Turning to C12U U51A, the self-cleavage was determined as 1.26.

As for C12U U51C, the self-cleavage was 1.25.

Take C12A G19A: the self-cleavage was found to be 0.43.

Take C11G U51C: the self-cleavage came to 0.41.

Consider C11G U51A, for which the self-cleavage came to 0.31.

Regarding C11U U31G, the self-cleavage was found to be 0.23.

C11U U31C: the self-cleavage was determined as 0.29.

Turning to C11U U31A, the self-cleavage was 0.32.

Regarding A13C, the self-cleavage amounted to 0.96.

As for C12U U60A, the self-cleavage was 1.04.

Regarding C12U U60C, the self-cleavage worked out at 0.95.

For C12U U60G, the self-cleavage is 0.46.

Regarding C11U, the self-cleavage turned out to be 0.44.

For the variant C12U U80A, the self-cleavage is 1.26.

C12U U80C: the self-cleavage turned out to be 1.23.

As to C11U G52A, the self-cleavage is 0.62.

As for C12U U69C, the self-cleavage came to 0.96.

C12U U69A: the self-cleavage turned out to be 0.95.

For the variant C12U U69G, the self-cleavage stood at 1.18.

C12G A28U: the self-cleavage amounted to 0.26.

As to C12U U41A, the self-cleavage came to 0.24.

With C12U U41G, the self-cleavage came to 0.28.

In the case of C12U U41C, the self-cleavage was determined as 1.31.

For the variant C12U C29U, the self-cleavage was 0.96.

As for C12U U54C, the self-cleavage is 1.27.

With C12U U54G, the self-cleavage stood at 1.01.

For the variant C12A U41C, the self-cleavage amounted to 0.99.

In the case of C12A U41G, the self-cleavage worked out at 0.36.

For the variant C12A A65G, the self-cleavage worked out at 0.44.

With C12A A65C, the self-cleavage stood at 0.32.

Consider C12U A47U, for which the self-cleavage amounted to 0.83.

In the case of C12U A47C, the self-cleavage was found to be 0.76.

Turning to C12U A47G, the self-cleavage turned out to be 1.17.

For C11U U72G, the self-cleavage was 0.37.

Regarding C11U U72C, the self-cleavage stood at 0.64.

Take C11U U72A: the self-cleavage was 0.42.

As for C11U A15U, the self-cleavage was 0.35.

As for C11U A15G, the self-cleavage was 0.4.

Consider C11U A15C, for which the self-cleavage stood at 0.5.

Take C12A A35G: the self-cleavage is 0.9.

For C12A A35U, the self-cleavage was 1.27.

On to C11G U41A, for which the self-cleavage amounted to 0.25.

C11G U41C: the self-cleavage was 0.67.

On to C12U A35G, for which the self-cleavage was 1.15.

In the case of C12U A35C, the self-cleavage was determined as 0.85.

In the case of C12U A35U, the self-cleavage is 1.06.

As for C11G U43A, the self-cleavage is 0.67.

In the case of C11G U43C, the self-cleavage is 0.29.

For the variant C11U C38A, the self-cleavage turned out to be 0.06.

Turning to C12A U49C, the self-cleavage was determined as 0.63.

Turning to C11G U60A, the self-cleavage is 0.12.

Turning to C11G U60C, the self-cleavage worked out at 0.29.

For C11G U60G, the self-cleavage came out at 0.21.

C12A A64G: the self-cleavage was found to be 1.21.

For the variant C12A A64U, the self-cleavage was 0.56.

As for C11G U67G, the self-cleavage amounted to 0.2.

Take C11G U67C: the self-cleavage amounted to 0.16.

For C11G U67A, the self-cleavage amounted to 0.27.

For the variant C12G U48G, the self-cleavage amounted to 0.35.

As to C12A C79A, the self-cleavage worked out at 1.28.

For C11G U66C, the self-cleavage came to 0.21.

Consider C11G U66A, for which the self-cleavage turned out to be 0.49.

C12U A45C: the self-cleavage turned out to be 0.64.

On to C12U A45U, for which the self-cleavage worked out at 0.83.

With C12U A45G, the self-cleavage turned out to be 1.25.

C12U A65U: the self-cleavage is 0.42.

As for C12U A65G, the self-cleavage turned out to be 1.07.

Consider C12U A56G, for which the self-cleavage turned out to be 1.13.

With C12U A28U, the self-cleavage is 1.12.

Regarding C12U A28G, the self-cleavage stood at 0.89.

For C12U A28C, the self-cleavage was determined as 0.94.

As for C12A U48G, the self-cleavage was 0.2.

As for C12G A15G, the self-cleavage amounted to 0.1.

Turning to C12U U31A, the self-cleavage worked out at 1.11.

As to C12U U31C, the self-cleavage stood at 1.28.

As to C12U U31G, the self-cleavage came to 0.91.

C12A U51A: the self-cleavage came out at 1.06.
